Assay [1] deals with T1, c-Met ECD/Fc (R&D Systems #358 MT), human (human, UniProt P08581 25-932).
T1 construct: extracellular domain; Bought fusion protein; also called c-Met ECD-Fc (human); human Met ECD-Fc; not shown: Fc part of the bought fusion protein
The experiment in a line: ELISA, inhibition of HGF binding to plate-coated c-Met ECD/Fc. For orientation: An ELISA detects its analyte on a solid surface through an enzyme-linked reagent.

The target of assay [2] is T2, c-Met ECD-Fc (cynomologus) (cynomologus, UniProt A0A2K5UM36 25-932).
T2 construct: also called cynomologus c-Met ECD-Fc
The experiment in a line: SPR (BIACORE 3000), cynomologus c-Met ECD-Fc immobilized, antibody injected, 1:1 model. For orientation: Surface plasmon resonance follows binding to a sensor surface in real time, without labels.
Description: (§1) Experiments were performed in a BIACORE™ 3000 instrument at 25° C. in Dulbecco's phosphate buffered saline containing 0.0005% Tween-20. Protein concentrations were obtained from sedimentation velocity experiments or by measuring the wavelength of the sample at 280 nm using theoretical extinction coefficients derived from amino acid sequences. For experiments measuring the binding of antibody to immobilized antigens, 220 RU (resonance units) of c-Met ECD-Fc (human or cynomologus) was immobilized on a B1 chip (BIACORE™) by standard direct amine coupling procedures. […] For each concentration, samples were injected in duplicate at 5 μl/min flow for 4 min. The dissociation was monitored for 2000 seconds. The data were fit globally to a simple 1:1 binding model using BIACORE™ Biavel software. In addition, to determine the koff independent of any potential error in the active concentration or fitting model, the dissociation data were fit globally and independently from association data to a simple dissociation model.

Assay [3] deals with T3, Insulin-like Growth Factor 1 Receptor (IGF-1R) (UniProt P08069 31-1367, limits assumed).
T3 construct: also called IGF-IR
The experiment in a line: IGF-1R Cell ELISA: IGF-1R tyrosine phosphorylation after IGF-1, % of control. Indirect readout; the legend says that the antibody does not bind IGF-1R.

In assay [4] the target is T1, c-Met ECD/Fc (R&D Systems #358 MT), …. Briefly: SPR (BIACORE 3000), human c-Met ECD-Fc immobilized, antibody injected.
Description: as §1
The target is the same in assay [5]. The experiment in a line: SPR (BIACORE 3000), human c-Met ECD-Fc immobilized, antibody injected, 1:1 model.
Description: as §1
For assay [6], the target named is T4, c-Met expressed on the surface of human A549 lung carcinoma cells (human, UniProt P08581 25-1390).
T4 construct: whole, on cells; Used for all assays on cells that carry human c-Met (A549, HepG2, S114); also called human c-Met; c-Met in A549 cells
Briefly: flow cytometry on human A549 cells, half-maximal binding at equilibrium. In general terms: A flow cytometer gives signals particle by particle.
Description: (§2) The binding affinity of purified antibodies for c-Met expressed on the surface of human A549 lung carcinoma cells and cynomolgus kidney cells was determined by flow cytometry using the BD™ Biosciences LSR flow cytometer according to manufacturer's protocols.
(§3) Cells grown in culture were washed with PBS, briefly incubated in the presence of 0.25% trypsin-EDTA (Invitrogen) and collected. The collected cells were washed in PBS wash buffer containing 0.025% sodium azide and 2% heat inactivated serum, pelleted and 5×10⁵ cells and resuspended in 500 μl of the same buffer. The time required to achieve equilibrium binding at room temperature for each antibody was determined independently to be between six and eight hours by incubating subsaturating concentrations of each antibody with cells. […] Each antibody was incubated with detached cells for 6 to 8 hours at room temperature depending on the time required to reach equilibrium. Cells were washed, resuspended and incubated in 500 μl of a 1:500 dilution of biotinylated mouse anti-human IgG (Jackson Labs) in PBS wash buffer for 45 minutes on ice. Next, cells were washed, resuspended and incubated with 10 μg/ml streptavidin R-phycoerythrin conjugate (Caltag) in 200 μl PBS wash buffer for 15 min on ice protected from light. Cells were washed and signal was detected with a BD Biosciences LSR flow cytometer according to manufacturer's protocols.

Assay [7] has as its target T2, c-Met ECD-Fc (cynomologus). The experiment in a line: SPR (BIACORE 3000), cynomologus c-Met ECD-Fc immobilized, antibody injected.
Description: as §1
Assay [8] deals with T5, c-Met expressed on the surface of cynomolgus kidney cells (cynomolgus, UniProt A0A2K5UM36 25-1381).
T5 construct: also called cynomologus c-Met expressed on the cell surface
The experiment in a line: flow cytometry on cynomolgus kidney cells, half-maximal binding at equilibrium.
Description: as §2, §3

Assay [9] deals with T4, c-Met expressed on the surface of human …. The experiment in a line: cell-based or functional assay.
The target in assay [10] is T1, c-Met ECD/Fc (R&D Systems #358 MT), …. The experiment in a line: Ligand Binding ELISA (competition): plate coated with c-Met ECD/Fc, antibody concentration varied, then HGF added and bound HGF detected; readout is % inhibition of HGF binding.
Description: The wells were washed four times with Tris-buffered saline (pH=8.0) with 0.05% TWEEN-20 (TBS-T). Next, 200 μl/well of blocking buffer (3% bovine serum albumin (BSA) in TBS-T) was added for 60 minutes (min) at room temperature to block non-specific binding sites. The wells were washed 4 times with 300 μl/well TBS-T. Next, 100 μl of Dulbecco's Modified Eagle medium (DMEM) supplemented with 10% FBS containing anti-c-Met antibodies from hybridoma supernatants or purified antibodies in either PBS or 20 mM sodium acetate (pH=5.5), 140 mM NaCl at various concentrations (e.g., 10, 3, 1, 0.3, 0.1, 0.03, and 0.01 μg/ml, based on human IgG2 concentrations in the supernatants) was added to each well. Anti-c-Met antibody was not added to the control wells of the experiment. The samples were mixed for 4 hours (hrs) at room temperature. […] The samples were mixed for 15 minutes at room temperature. […] The solutions were incubated in the wells for 30 min at room temperature. […] The samples were incubated for 30 min at room temperature. The wells were washed 5 times with TBS-T, about 300 μl/well/wash. Next, 100 μl/well of 3,3′,5,5′-tetramethylbenzidine (TMB) peroxidase substrate (Kirkegaard & Perry Laboratories) was added and developed for 1-2 min at room temperature. […] The samples were read at a wavelength of 450 nanometers (nm) on a 96-well plate reader and no background was subtracted.

Numbering of substitutions follows the chain as printed. Numbers in names are those of the source.

T5 sequence (A0A2K5UM36 entry or part of it limits assumed): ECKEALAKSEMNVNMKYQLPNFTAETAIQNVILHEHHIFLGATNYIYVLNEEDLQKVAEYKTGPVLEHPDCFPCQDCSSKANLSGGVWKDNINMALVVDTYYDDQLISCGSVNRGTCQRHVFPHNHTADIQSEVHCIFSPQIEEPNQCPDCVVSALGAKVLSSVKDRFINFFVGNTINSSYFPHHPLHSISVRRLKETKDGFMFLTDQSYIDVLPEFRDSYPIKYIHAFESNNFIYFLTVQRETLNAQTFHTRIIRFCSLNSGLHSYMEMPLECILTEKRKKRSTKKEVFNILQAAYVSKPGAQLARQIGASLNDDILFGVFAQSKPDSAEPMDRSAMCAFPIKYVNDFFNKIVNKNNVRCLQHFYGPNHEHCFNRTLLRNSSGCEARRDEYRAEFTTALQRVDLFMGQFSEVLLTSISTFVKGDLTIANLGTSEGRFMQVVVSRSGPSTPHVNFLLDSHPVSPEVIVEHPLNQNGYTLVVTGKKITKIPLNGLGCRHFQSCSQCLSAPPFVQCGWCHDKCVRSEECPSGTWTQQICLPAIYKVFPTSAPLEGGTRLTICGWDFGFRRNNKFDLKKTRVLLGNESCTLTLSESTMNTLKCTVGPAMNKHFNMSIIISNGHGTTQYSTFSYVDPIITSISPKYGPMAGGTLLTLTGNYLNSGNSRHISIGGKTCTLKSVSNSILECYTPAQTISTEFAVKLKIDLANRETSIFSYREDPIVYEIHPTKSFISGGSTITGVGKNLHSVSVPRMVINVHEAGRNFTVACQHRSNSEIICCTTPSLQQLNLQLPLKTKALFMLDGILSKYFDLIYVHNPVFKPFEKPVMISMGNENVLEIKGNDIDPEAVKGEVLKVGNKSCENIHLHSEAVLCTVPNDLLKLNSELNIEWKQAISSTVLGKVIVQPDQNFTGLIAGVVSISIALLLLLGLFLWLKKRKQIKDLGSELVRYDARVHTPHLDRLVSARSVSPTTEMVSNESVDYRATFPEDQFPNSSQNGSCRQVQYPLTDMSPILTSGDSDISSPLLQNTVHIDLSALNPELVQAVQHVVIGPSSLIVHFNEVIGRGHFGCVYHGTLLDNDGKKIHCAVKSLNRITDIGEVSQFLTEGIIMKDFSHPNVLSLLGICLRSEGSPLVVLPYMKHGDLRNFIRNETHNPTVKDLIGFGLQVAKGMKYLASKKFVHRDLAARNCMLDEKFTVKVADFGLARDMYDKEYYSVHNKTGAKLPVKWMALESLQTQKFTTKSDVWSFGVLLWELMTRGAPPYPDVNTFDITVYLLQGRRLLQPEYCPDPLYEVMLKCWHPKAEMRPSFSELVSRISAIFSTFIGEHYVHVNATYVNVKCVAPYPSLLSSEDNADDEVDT
T4 sequence (P08581 25-1390): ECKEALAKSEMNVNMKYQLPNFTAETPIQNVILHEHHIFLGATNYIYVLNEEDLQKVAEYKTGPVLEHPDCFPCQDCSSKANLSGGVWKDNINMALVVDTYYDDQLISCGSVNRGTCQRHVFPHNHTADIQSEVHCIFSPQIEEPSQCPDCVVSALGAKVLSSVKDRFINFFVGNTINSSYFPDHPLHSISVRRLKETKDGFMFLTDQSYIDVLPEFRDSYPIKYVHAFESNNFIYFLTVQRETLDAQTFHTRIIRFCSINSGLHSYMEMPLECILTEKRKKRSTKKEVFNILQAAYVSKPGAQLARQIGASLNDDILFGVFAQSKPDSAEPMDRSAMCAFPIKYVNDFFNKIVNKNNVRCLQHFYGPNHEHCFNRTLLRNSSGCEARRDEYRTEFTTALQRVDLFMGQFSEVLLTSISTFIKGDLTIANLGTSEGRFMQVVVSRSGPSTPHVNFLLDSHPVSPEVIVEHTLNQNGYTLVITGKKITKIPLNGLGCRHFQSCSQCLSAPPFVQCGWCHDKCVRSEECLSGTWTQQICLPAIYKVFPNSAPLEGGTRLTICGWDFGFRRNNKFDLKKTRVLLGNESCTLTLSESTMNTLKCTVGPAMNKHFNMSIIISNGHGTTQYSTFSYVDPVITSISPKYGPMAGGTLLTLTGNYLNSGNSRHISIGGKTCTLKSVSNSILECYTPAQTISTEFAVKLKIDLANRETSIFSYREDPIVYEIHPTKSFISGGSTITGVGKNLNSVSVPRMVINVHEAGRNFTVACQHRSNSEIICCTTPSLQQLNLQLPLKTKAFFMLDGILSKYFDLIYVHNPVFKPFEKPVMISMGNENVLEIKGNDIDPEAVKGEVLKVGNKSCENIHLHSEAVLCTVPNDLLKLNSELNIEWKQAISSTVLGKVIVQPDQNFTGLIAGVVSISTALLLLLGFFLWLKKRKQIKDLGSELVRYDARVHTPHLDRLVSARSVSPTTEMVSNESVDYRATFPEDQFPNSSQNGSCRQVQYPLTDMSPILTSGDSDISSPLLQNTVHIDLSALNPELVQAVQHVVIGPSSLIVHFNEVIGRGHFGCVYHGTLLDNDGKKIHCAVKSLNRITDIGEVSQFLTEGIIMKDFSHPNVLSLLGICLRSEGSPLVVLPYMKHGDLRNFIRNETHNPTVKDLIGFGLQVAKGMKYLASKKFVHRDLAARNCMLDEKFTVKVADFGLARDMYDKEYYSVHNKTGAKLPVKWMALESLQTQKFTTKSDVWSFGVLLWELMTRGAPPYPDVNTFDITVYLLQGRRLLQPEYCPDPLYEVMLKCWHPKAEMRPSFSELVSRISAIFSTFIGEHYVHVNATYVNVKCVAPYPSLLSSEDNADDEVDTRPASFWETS
T1 sequence (P08581 25-932): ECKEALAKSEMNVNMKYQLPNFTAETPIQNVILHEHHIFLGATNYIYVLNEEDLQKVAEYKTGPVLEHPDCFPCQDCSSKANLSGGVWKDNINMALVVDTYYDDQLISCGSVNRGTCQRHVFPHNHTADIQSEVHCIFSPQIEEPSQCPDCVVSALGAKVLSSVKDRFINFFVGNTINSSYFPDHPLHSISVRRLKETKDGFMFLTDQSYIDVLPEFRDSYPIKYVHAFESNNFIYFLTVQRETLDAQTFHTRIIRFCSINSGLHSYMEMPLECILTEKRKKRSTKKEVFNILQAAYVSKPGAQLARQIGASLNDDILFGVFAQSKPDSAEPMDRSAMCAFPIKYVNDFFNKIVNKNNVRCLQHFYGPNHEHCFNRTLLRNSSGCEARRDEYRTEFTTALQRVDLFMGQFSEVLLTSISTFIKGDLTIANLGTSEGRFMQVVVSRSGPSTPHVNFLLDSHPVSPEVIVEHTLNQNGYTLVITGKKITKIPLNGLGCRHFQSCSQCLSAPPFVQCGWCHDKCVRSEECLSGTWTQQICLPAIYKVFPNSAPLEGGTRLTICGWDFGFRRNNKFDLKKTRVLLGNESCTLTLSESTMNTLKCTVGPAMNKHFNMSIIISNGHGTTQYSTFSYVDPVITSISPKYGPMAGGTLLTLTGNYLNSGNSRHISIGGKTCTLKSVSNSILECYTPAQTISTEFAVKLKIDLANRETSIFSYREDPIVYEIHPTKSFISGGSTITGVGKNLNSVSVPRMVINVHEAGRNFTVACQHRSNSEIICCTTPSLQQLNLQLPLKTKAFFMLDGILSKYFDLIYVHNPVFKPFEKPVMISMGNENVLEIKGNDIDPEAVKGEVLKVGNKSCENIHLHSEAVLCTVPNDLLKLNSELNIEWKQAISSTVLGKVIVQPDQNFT
T2 sequence (A0A2K5UM36 entry or part of it limits assumed): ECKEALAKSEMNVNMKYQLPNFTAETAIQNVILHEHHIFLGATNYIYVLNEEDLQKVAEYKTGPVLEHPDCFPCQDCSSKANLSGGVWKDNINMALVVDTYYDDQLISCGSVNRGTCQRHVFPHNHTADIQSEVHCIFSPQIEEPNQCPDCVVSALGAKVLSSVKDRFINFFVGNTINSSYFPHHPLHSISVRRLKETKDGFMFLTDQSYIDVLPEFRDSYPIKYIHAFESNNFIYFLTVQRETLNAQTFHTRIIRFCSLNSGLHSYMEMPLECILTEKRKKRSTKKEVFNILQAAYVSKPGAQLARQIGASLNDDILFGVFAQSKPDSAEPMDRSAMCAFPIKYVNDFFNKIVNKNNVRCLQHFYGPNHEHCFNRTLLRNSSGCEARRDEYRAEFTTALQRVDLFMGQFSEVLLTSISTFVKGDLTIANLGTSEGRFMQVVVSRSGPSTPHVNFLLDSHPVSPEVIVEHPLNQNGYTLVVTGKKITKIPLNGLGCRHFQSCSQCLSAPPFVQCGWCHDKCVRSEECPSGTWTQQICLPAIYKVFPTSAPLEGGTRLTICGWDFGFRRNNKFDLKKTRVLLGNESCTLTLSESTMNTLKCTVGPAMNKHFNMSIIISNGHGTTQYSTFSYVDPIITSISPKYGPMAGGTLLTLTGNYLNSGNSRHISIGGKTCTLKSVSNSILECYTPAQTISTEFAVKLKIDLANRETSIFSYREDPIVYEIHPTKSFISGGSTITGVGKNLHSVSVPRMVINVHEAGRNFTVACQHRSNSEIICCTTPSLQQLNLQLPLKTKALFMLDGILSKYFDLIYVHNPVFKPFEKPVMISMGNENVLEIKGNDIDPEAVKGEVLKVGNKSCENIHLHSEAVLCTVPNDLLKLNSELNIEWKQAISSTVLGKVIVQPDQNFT

B1: anti-c-Met monoclonal antibody 9.1.2 (antibody, V domains shown)
VH: QVQLQESGPGLVKPSQTLSLTCTVSGGSISSGGYYWSWIRQHPGKGLEWIGYIYYSGSTYYNPSLKSRVTISVDTSKNQFSLKLSSVTAADTAVYYCARDGPLGYCSSTSCPVTGEYYYYGMDVWGQGTTVTVSS
VL: EIVLTQSPGTLSLSPGERATLSCRASQSVSNNYLAWYQQKPGQAPRLLIFGASSRATGIPDRFSGSGSGTDFTLTISRLEPEDFAVYYCQQYDISPMYSFGQGTKLEMKR
notes: Human IgG2 kappa; also called hybridoma 9.1.2 (LN 15884); PTA-5027
The term IC50 denotes the concentration that gives 50% inhibition. Usually Kd stands for a measure of binding affinity in units of concentration. The low end stands for higher affinity, the high end for lower affinity. What is called koff is the first-order rate constant of dissociation. With B1, the IC50 in [1] stood at 0.093 µg/mL. The Kd in assay [2] stood at 1.1 nM. For the same molecule, the binding result in assay [3] is on record as “no binding (tested: 1000 µg/ml)”. Besides, the koff in assay [4] was determined as 6.8e-05 s⁻¹. Also, the Kd in assay [5] is 0.82 nM. The same molecule displayed a Kd in assay [6] of 0.169 nM. Moreover, the koff in assay [7] was 9.8e-05 s⁻¹. This molecule also showed a Kd in assay [8] of 0.168 nM. In assay [9], the “Agonist Activity [maximum fold stimulation]” value was 6.5 fold stimulation (maximum); the “Cellular Met Levels [% loss at 1.0 µg/ml]” value amounted to 46.9 % loss at 1.0 µg/ml; the “Cellular pTyr Assay [IC50, µg/ml]” value came out at 0.033 µg/ml; the “Soft Agar Growth [IC50, µg/ml]” value is 5.5 µg/mL. In assay [9], the “Tubular Morphogenesis Agonism [fold stimulation at 50 µg/ml]” value is 2.2 fold stimulation at 50 µg/ml and the “Tubular Morphogenesis Antagonism [% inhibition at 1 µg/ml]” value came to 84 % inhibition at 1 µg/ml.

B2: anti-c-Met monoclonal antibody 8.70.2 (antibody, V domains shown)
VH: QLQLQESGPGLVKPSETLSLTCTVSGGSISSSSYYGGWIRQPPGKGLDWIGSIYYSGNTYYNPSLKSRVTISVDTSKNQFSLKLSSVTAADTAVYYCARHSWDYFDYWDQGTLVTVSS
VL: DIQMTQSPSSVSASVGDRVTITCRASQGISSWLAWYQQKPGKAPKLLIYAASSLQSGVPSRFSGSGSGTDFTLTISSLQSEDFATYYCQQANSFPITFGPGTKVEIKR
notes: Human IgG2 kappa; also called hybridoma 8.70.2 (LN 15885); PTA-5028
Take B2: the IC50 in assay [1] was 0.115 µg/mL. In assay [2], this molecule showed a Kd of 0.32 nM. The koff in assay [4] came to 6.1e-05 s⁻¹. In [5], this molecule displayed a Kd of 0.33 nM. Also, the Kd in assay [6] is 0.0407 nM. Also, the koff in assay [7] stood at 6.5e-05 s⁻¹. In [8], this molecule returned a Kd of 0.0553 nM. Moreover, in [9], the “Agonist Activity [maximum fold stimulation]” value was 2.5 fold stimulation (maximum); the “Cellular Met Levels [% loss at 1.0 µg/ml]” value amounted to 11 % loss at 1.0 µg/ml; the “Cellular pTyr Assay [IC50, µg/ml]” value came to 0.143 µg/ml; the “Soft Agar Growth [IC50, µg/ml]” value is 25 µg/mL. In assay [9], the “Tubular Morphogenesis Agonism [fold stimulation at 50 µg/ml]” value was 8.2 fold stimulation at 50 µg/ml and the “Tubular Morphogenesis Antagonism [% inhibition at 1 µg/ml]” value came out at 25 % inhibition at 1 µg/ml.

B3: anti-c-Met monoclonal antibody 13.3.2 (antibody, human IgG2, kappa, V domains shown)
VH: QVQLVQSGAEVKKPGASVKVSCEASGYTFTSYGFSWVRQAPGQGLEWMGWISASNGNTYYAQKLQGRVTMTTDTSTSSAYMELRSLRSDDTAVYYCARVYADYADYWGQGTLVTVSS
VL: B2 VL with S30N, S31T, Q55K, T69A, S80P, I96L, P100G
notes: Human IgG2 kappa from XenoMouse hybridoma; The variable positions X2, X4, X6, X8 correspond to positions 42, 97, 14 (heavy) and 91 (light), where position one is the N-terminal amino acid; these numbers may not count on the entry with its leader; also called PTA-5026
Molecule B3 had an IC50 in assay [1] of 0.09 µg/mL. Moreover, the Kd in assay [2] amounted to 0.6 nM; in [5] it was 0.22 nM; in assay [6], 0.0393 nM; in assay [8] it was 0.0486 nM. In assay [3], the binding result was “no binding (tested: 1000 µg/ml)”. Moreover, the koff in assay [4] is 0.00015 s⁻¹; in assay [7], 0.00029 s⁻¹. Also, the “IC50 (read off the curve)” value in assay [10] was about 0.03 µg/mL. Also, in assay [9], the “Agonist Activity [maximum fold stimulation]” value is 2.7 fold stimulation (maximum). The “Cellular pTyr Assay [IC50, µg/ml]” value in assay [9] came out at 0.033 µg/ml. Besides, in assay [9], the “Soft Agar Growth [IC50, µg/ml]” value stood at 8.5 µg/mL.

B4: anti-c-Met monoclonal antibody 8.90.3 (antibody, V domains shown)
VH: EVQLVESGGGLVQPGGSLRLSCAASGFTFSRYSMNWVRQAPGKGLEWVSYISSRSSTIYYADSVKGRFTMSRDNAKNSLYMQMNSLRDEDTAVYYCGYGDYDYFDYWGQGTLVTVSS
VL: B2 VL with T20I, Q55K, L73V, S80P, A91S, F94L, I96W, P100Q
notes: Human IgG2 kappa
In turn, B4 had an IC50 in [1] of 0.11 µg/mL. The molecule further yielded a Kd in assay [2] of 1.22 nM. The same molecule came in with a koff in assay [4] of 0.00015 s⁻¹. Also, in assay [5], the Kd was 0.53 nM. This molecule returned a Kd in assay [6] of 0.026 nM. In assay [7], this molecule gave a koff of 0.00025 s⁻¹. The Kd in assay [8] was 0.393 nM. Further, in [9], the “Agonist Activity [maximum fold stimulation]” value is 2.3 fold stimulation (maximum); the “Cellular Met Levels [% loss at 1.0 µg/ml]” value was found to be 17.5 % loss at 1.0 µg/ml; the “Cellular pTyr Assay [IC50, µg/ml]” value is 0.086 µg/ml; the “Soft Agar Growth [IC50, µg/ml]” value is 10.5 µg/mL. In [9], the “Tubular Morphogenesis Agonism [fold stimulation at 50 µg/ml]” value was 2.5 fold stimulation at 50 µg/ml and the “Tubular Morphogenesis Antagonism [% inhibition at 1 µg/ml]” value was determined as 61 % inhibition at 1 µg/ml.

B5: anti-c-Met monoclonal antibody 13.3.2L-A91T, H-E42K, S97T (antibody, human IgG2, kappa, V domains shown)
VH: B3 VH with E23K, S78T
VL: B2 VL with S30N, S31T, Q55K, S80P, I96L, P100G
notes: positions 42, 97, 14 and 91 count from the N-terminal amino acid and may not count on the entry with its leader
In turn, B5 registered an IC50 in [1] of 0.127 µg/mL. Besides, the Kd in assay [2] turned out to be 0.61 nM; in assay [5], 0.2 nM; in [6], 0.056 nM; in assay [8], 0.0733 nM. Also, the figures for the koff in assay [4] and in [7] were 0.00018 s⁻¹ and 0.0004 s⁻¹, respectively. In addition, the “IC50 (read off the curve)” value in [10] was about 0.05 µg/mL. For the same molecule, the “Agonist Activity [maximum fold stimulation]” value in assay [9] was 2.5 fold stimulation (maximum). For the same molecule, the “Cellular Met Levels [% loss at 1.0 µg/ml]” value in assay [9] amounted to 28.5 % loss at 1.0 µg/ml. Moreover, the “Cellular pTyr Assay [IC50, µg/ml]” value in assay [9] came out at 0.032 µg/ml.

(Values after patent publication US20120321614A1 (Amgen, published 2012).)
